Reference: PMC11964938

Target: purified, recombinant myristoylated HIV-1 MA protein (HIV-1 pNL4-3)

HIV-1 SP2 added to MA on lipid monolayers (peptide)
share of sub-images that contributed to mature-like MA lattice classes on lipid monolayers in the presence of SP2 (7% mature-like and 7% immature-like without SP2; no immature-like classes with SP2): 47%
